From patent US20190153089A1 come the findings set out here.

The target of this test is the two scFvs (17-21-A01-sc01 and 17-21-A01-sc03). In words: competition ELISA: IC50 of TNFβ relative to IC50 of TNFα on coated scFv. A general note: In an ELISA, binding on a coated surface is turned into a signal by an enzyme label.

B1: recombinant human TNFβ (Peprotech, Cat. No. 300-01B) (ligand, UniProt P01374 35-205, looked up)
chain: LPGVGLTPSAAQTARQHPKMHLAHSTLKPAAHLIGDPSKQNSLLWRANTDRAFLQDGFSLSNNSLLVPTSGIYFVYSQVVFSGKAYSPKATSSPLYLAHEVQLFSSQYPFHVPLLSSQKMVYPGLQEPWLHSMYHGAAFQLTQGDQLSTHTDGIPHLVLSPSTVFFGAFAL
Molecule B1 yielded a selectivity for binding to TNFα over TNFβ above 20000 fold.
